We go through two molecules from patent US8871909B2, “Antibodies inhibiting c-Met dimerization and uses thereof” (Pierre Fabre Medicament, priority 2007, dated 2014).

The subject of one assay is NCI-H441 cells. As to the kind of experiment: Wound healing (migration) assay with NCI-H441 cells. The format is cell-based. The protocol: HGF stimulates motility. To determine whether the anti-HGF antibodies were able to inhibit migration, NCI-H441 cells were grown to high density and a gap was introduced with a P200 pipette tip. Cells were then stimulate to migrate across the gap with HGF (100 ng/ml) in presence or in absence of 11E1. Wells with 11E1 alone were also evaluated. Each tested condition was evaluated as a sextuplicate and 3 independent experiments were performed. After an overnight incubation, cells were visualized with an Axio Vision Camera (objective ×4).

Assay [1] has as its system NCI-H441. As to the kind of experiment: Established xenograft NCI-H441 tumor model, 224G11 alone or with Navelbine (Example 15). The format is in vivo, Swiss nude mice. To be noted: 224G11 2 mg loading then 1 mg twice a week i.p.; Navelbine 8 mg/kg i.p. days 5, 12, 19. How it is done:
Briefly, NCI-H441 cells from ATCC were routinely cultured in RPMI 1640 medium, 10% FCS and 1% L-Glutamine. Cells were split two days before engraftment so that they were in exponential phase of growth. Ten million NCI-H441 cells were engrafted in PBS to 7 weeks old Swiss nude mice. […] Mice were treated i.p. with a loading dose of 2 mg of 224G11/mouse and then twice a week, for 43 days, with 1 mg of antibody/mouse. The 9G4 MAb was used as an isotype control.
Navelbine® was given by i.p. injections at a dose of 8 mg/kg on days 5, 12, 19 post-cell injection. For combined therapy with both 224G11 and Navelbine®, the two compounds were administered separately. In this experience the 2 compounds were used at their optimal dosage. Tumor volume was measured twice a week and calculated by the formula: p/6×length×width×height.

In assay [2] the test system is NCI-H441. As to the kind of experiment: In vivo combination of 224G11 and Doxorubicin on NCI-H441 xenograft model. Further details: species or system Athymic nude mice. The settings on record: D11 to D39; Doxorubicin 5 mg/kg i.v. How it is done: (§1) NCI-H441 cells from ATCC were routinely cultured in RPMI 1640 medium, 10% FCS, 1% L-Glutamine. Cells were split two days before engraftment being in exponential phase of growth. Ten million NCI-H441 cells were engrafted to Athymic nude mice. […] Mice were treated i.p. either with a loading dose of 2 mg of 224G11 Mab/mouse and then twice a week with 1 mg of antibody/mouse or with 4 injections of Doxorubicin (D5, D12, D19, D26) at 5 mg/kg. A third group administered with the combine treatment was also included. Doxorubicin was given by i.v. injections. Tumor volume was measured twice a week and calculated by the formula: π/6×length×width×height and animal weights were monitored every day over the period of Doxorubicin treatment. Statistical analysis was performed at each measured time using either a t-test or a Mann-Whitney test. […] Results are represented in FIG. 46.

Assay [3] concerns NCI-H441. As to the kind of experiment: In vivo combination of 224G11 and Docetaxel on NCI-H441 xenograft model. Further details: species or system Athymic nude mice. The settings on record: D11 to D35; Docetaxel 7.5 mg/kg i.p. The protocol:
as §1, with “growth. Nine” for “growth. Ten”, “of Docetaxel” for “of Doxorubicin”, “at 7.5” for “at 5”, “included. Docetaxel” for “included. Doxorubicin”, “by i.p.” for “by i.v.”, “FIG. 47.” for “FIG. 46.”

B1: 11E1: murine anti-c-Met monoclonal antibody, IgG1 kappa; heavy chain SEQ ID No. 62, light chain SEQ ID No. 63 (antibody, V domains shown)
VH: QVQLQQSGAELAKPGASVKMSCKASGYTFTSYWMNWVKQRPGQGLEWIGYINPTTGSTDYNQKLKDKATLTADKSSNTAYMQLSSLTSEDSAVYYCAIGGYGSWFAYWGQGTLVTVSA
VL: QIVLTQSPAIMSASPGEKVTLTCSASSSVSSTYLYWYQQKPGSSPKLWIYTTSILASGVPARFSGSGSGTSYSLTISSMETEDAASYFCHQWSSYPFTFGSGTKLDIK
modifications: mus musculus
Turning to B1, in the assay on NCI-H441 cells (NCI-H441, HGF 100 ng/ml), the “effect on cell migration in presence of HGF” value is “full antagonist”. Besides, the “agonist effect on cell migration, added alone” value with NCI-H441 cells (NCI-H441, no HGF) is given as “no agonist effect”.

B2: 224G11: murine anti-c-Met monoclonal antibody, IgG1 kappa; heavy chain SEQ ID No. 18, light chain SEQ ID No. 21 (antibody, V domains shown)
VH: EVQLQQSGPELVKPGASVKISCKTSGYIFTAYTMHWVRQSLGESLDWIGGIKPNNGLANYNQKFKGKATLTVDKSSSTAYMDLRSLTSEDSAVYYCARSEITTEFDYWGQGTALTVSS
VL: DIVLTQSPASLAVSLGQRATISCRASESVDSYANSFMHWYQQKPGQPPKLLIYRASNLESGIPARFSGSGSRTDFTLTINPVEADDVATYYCQQSKEDPLTFGSGTKLEMK
modifications: mus musculus
As for B2, the anti-tumor activity entry with NCI-H441 [1] is “as efficient as Navelbine®”. Also, the “anti-tumor activity compared to the control group” value in the assay with NCI-H441 [2] and with NCI-H441 [3] was “significant anti-tumor activity” each time.
